B1: C1QBP (protein, UniProt Q07021 74-282, looked up)
Complement component 1 Q …: LHTDGDKAFVDFLSDEIKEERKIQKHKTLPKMSGGWELELNGTEAKLVRKVAGEKITVTFNINNSIPPTFDGEEEPSQGQKVEEQEPELTSTPNFVVEVIKNDDGKKALVLDCHYPEDEVGQEDEAESDIFSIREVSFQSTGESEWKDTNYTLNTDSLDWALYDHLMDFLADRGVDNTFADELVELSTALEHQEYITFLEDLKSFVKSQ
B2: ZBTB5 (protein, UniProt O15062 1-677, looked up)
Zinc finger and BTB …: MDFPGHFEQIFQQLNYQRLHGQLCDCVIVVGNRHFKAHRSVLAACSTHFRALFSVAEGDQTMNMIQLDSEVVTAEAFAALIDMMYTSTLMLGESNVMDVLLAASHLHLNSVVKACKHYLTTRTLPMSPPSERVQEQSARMQRSFMLQQLGLSIVSSALNSSQNGEEQPAPMSSSMRSNLDQRTPFPMRRLHKRKQSAEERARQRLRPSIDESAISDVTPENGPSGVHSREEFFSPDSLKIVDNPKADGMTDNQEDSAIMFDQSFGTQEDAQVPSQSDNSAGNMAQLSMASRATQVETSFDQEAAPEKSSFQCENPEVGLGEKEHMRVVVKSEPLSSPEPQDEVSDVTSQAEGSESVEVEGVVVSAEKIDLSPESSDRSFSDPQSSTDRVGDIHILEVTNNLEHKSTFSISNFLNKSRGNNFTANQNNDDNIPNTTSDCRLESEAPYLLSPEAGPAGGPSSAPGSHVENPFSEPADSHFVRPMQEVMGLPCVQTSGYQGGEQFGMDFSRSGLGLHSSFSRVMIGSPRGGASNFPYYRRIAPKMPVVTSVRSSQIPENSTSSQLMMNGATSSFENGHPSQPGPPQLTRASADVLSKCKKALSEHNVLVVEGARKYACKICCKTFLTLTDCKKHIRVHTGEKPYACLKCGKRFSQSSHLYKHSKTTCLRWQSSNLPSTLL
B3: ZBTB44 (protein, UniProt Q8NCP5 1-570, looked up)
Zinc finger and BTB …: MGVKTFTHSSSSHSQEMLGKLNMLRNDGHFCDITIRVQDKIFRAHKVVLAACSDFFRTKLVGQAEDENKNVLDLHHVTVTGFIPLLEYAYTATLSINTENIIDVLAAASYMQMFSVASTCSEFMKSSILWNTPNSQPEKGLDAGQENNSNCNFTSRDGSISPVSSECSVVERTIPVCRESRRKRKSYIVMSPESPVKCGTQTSSPQVLNSSASYSENRNQPVDSSLAFPWTFPFGIDRRIQPEKVKQAENTRTLELPGPSETGRRMADYVTCESTKTTLPLGTEEDVRVKVERLSDEEVHEEVSQPVSASQSSLSDQQTVPGSEQVQEDLLISPQSSSIGSVDEGVSEGLPTLQSTSSTNAPPDDDDRLENVQYPYQLYIAPSTSSTERPSPNGPDRPFQCPTCGVRFTRIQNLKQHMLIHSGIKPFQCDRCGKKFTRAYSLKMHRLKHEGKRCFRCQICSATFTSFGEYKHHMRVSRHIIRKPRIYECKTCGAMFTNSGNLIVHLRSLNHEASELANYFQSSDFLVPDYLNQEQEETLVQYDLGEHGFESNSSVQMPVISQYHSKGKEP
B4: ZDHHC18 (protein, UniProt Q9NUE0 1-388, looked up)
Palmitoyltransferase ZDHHC18: MKDCEYQQISPGAAPLPASPGARRPGPAASPTPGPGPAPPAAPAPPRWSSSGSGSGSGSGSLGRRPRRKWEVFPGRNRFYCGGRLMLAGHGGVFALTLLLILTTTGLFFVFDCPYLARKLTLAIPIIAAILFFFVMSCLLQTSFTDPGILPRATVCEAAALEKQIDNTGSSTYRPPPRTREVLINGQMVKLKYCFTCKMFRPPRTSHCSVCDNCVERFDHHCPWVGNCVGRRNYRFFYAFILSLSFLTAFIFACVVTHLTLRAQGSNFLSTLKETPASVLELVICFFSIWSILGLSGFHTYLVASNLTTNEDIKGSWSSKRGGEASVNPYSHKSIITNCCAVLCGPLPPSLIDRRGFVQSDTVLPSPIRSDEPACRAKPDASMVGGHP
B5: ZBTB48 (protein, UniProt P10074 1-688, looked up)
Zinc finger and BTB …: MDGSFVQHSVRVLQELNKQREKGQYCDATLDVGGLVFKAHWSVLACCSHFFQSLYGDGSGGSVVLPAGFAEIFGLLLDFFYTGHLALTSGNRDQVLLAARELRVPEAVELCQSFKPKTSVGQAAGGQSGLGPPASQNVNSHVKEPAGLEEEEVSRTLGLVPRDQEPRGSHSPQRPQLHSPAQSEGPSSLCGKLKQALKPCPLEDKKPEDCKVPPRPLEAEGAQLQGGSNEWEVVVQVEDDGDGDYMSEPEAVLTRRKSNVIRKPCAAEPALSAGSLAAEPAENRKGTAVPVECPTCHKKFLSKYYLKVHNRKHTGEKPFECPKCGKCYFRKENLLEHEARNCMNRSEQVFTCSVCQETFRRRMELRVHMVSHTGEMPYKCSSCSQQFMQKKDLQSHMIKLHGAPKPHACPTCAKCFLSRTELQLHEAFKHRGEKLFVCEECGHRASSRNGLQMHIKAKHRNERPHVCEFCSHAFTQKANLNMHLRTHTGEKPFQCHLCGKTFRTQASLDKHNRTHTGERPFSCEFCEQRFTEKGPLLRHVASRHQEGRPHFCQICGKTFKAVEQLRVHVRRHKGVRKFECTECGYKFTRQAHLRRHMEIHDRVENYNPRQRKLRNLIIEDEKMVVVALQPPAELEVGSAEVIVESLAQGGLASQLPGQRLCAEESFTGPGVLEPSLIITAAVPEDCDT
B6: ZBTB6 (protein, UniProt Q15916 1-424, looked up)
Zinc finger and BTB …: MAAESDVLHFQFEQQGDVVLQKMNLLRQQNLFCDVSIYINDTEFQGHKVILAACSTFMRDQFLLTQSKHVRITILQSAEVGRKLLLSCYTGALEVKRKELLKYLTAASYLQMVHIVEKCTEALSKYLEIDLSMKNNNQHTDLCQSSDPDVKNEDENSDKDCEIIEISEDSPVNIDFHVKEEESNALQSTVESLTSERKEMKSPELSTVDIGFKDNEICILHVESISTAGVENGQFSQPCTSSKASMYFSETQHSLINSTVESRVAEVPGNQDQGLFCENTEGSYGTVSEIQNLEEGYSLRHQCPRCPRGFLHVENYLRHLKMHKLFLCLQCGKTFTQKKNLNRHIRGHMGIRPFQCTVCLKTFTAKSTLQDHLNIHSGDRPYKCHCCDMDFKHKSALKKHLTSVHGRSSGEKLSRPDLKRQSLL
B7: ZEB2 (protein, UniProt O60315 1-1214, looked up)
Zinc finger E-box-binding …: MKQPIMADGPRCKRRKQANPRRKNVVNYDNVVDTGSETDEEDKLHIAEDDGIANPLDQETSPASVPNHESSPHVSQALLPREEEEDEIREGGVEHPWHNNEILQASVDGPEEMKEDYDTMGPEATIQTAINNGTVKNANCTSDFEEYFAKRKLEERDGHAVSIEEYLQRSDTAIIYPEAPEELSRLGTPEANGQEENDLPPGTPDAFAQLLTCPYCDRGYKRLTSLKEHIKYRHEKNEENFSCPLCSYTFAYRTQLERHMVTHKPGTDQHQMLTQGAGNRKFKCTECGKAFKYKHHLKEHLRIHSGEKPYECPNCKKRFSHSGSYSSHISSKKCIGLISVNGRMRNNIKTGSSPNSVSSSPTNSAITQLRNKLENGKPLSMSEQTGLLKIKTEPLDFNDYKVLMATHGFSGTSPFMNGGLGATSPLGVHPSAQSPMQHLGVGMEAPLLGFPTMNSNLSEVQKVLQIVDNTVSRQKMDCKAEEISKLKGYHMKDPCSQPEEQGVTSPNIPPVGLPVVSHNGATKSIIDYTLEKVNEAKACLQSLTTDSRRQISNIKKEKLRTLIDLVTDDKMIENHNISTPFSCQFCKESFPGPIPLHQHERYLCKMNEEIKAVLQPHENIVPNKAGVFVDNKALLLSSVLSEKGMTSPINPYKDHMSVLKAYYAMNMEPNSDELLKISIAVGLPQEFVKEWFEQRKVYQYSNSRSPSLERSSKPLAPNSNPPTKDSLLPRSPVKPMDSITSPSIAELHNSVTNCDPPLRLTKPSHFTNIKPVEKLDHSRSNTPSPLNLSSTSSKNSHSSSYTPNSFSSEELQAEPLDLSLPKQMKEPKSIIATKNKTKASSISLDHNSVSSSSENSDEPLNLTFIKKEFSNSNNLDNKSTNPVFSMNPFSAKPLYTALPPQSAFPPATFMPPVQTSIPGLRPYPGLDQMSFLPHMAYTYPTGAATFADMQQRRKYQRKQGFQGELLDGAQDYMSGLDDMTDSDSCLSRKKIKKTESGMYACDLCDKTFQKSSSLLRHKYEHTGKRPHQCQICKKAFKHKHHLIEHSRLHSGEKPYQCDKCGKRFSHSGSYSQHMNHRYSYCKREAEEREAAEREAREKGHLEPTELLMNRAYLQSITPQGYSDSEERESMPRDGESEKEHEKEGEDGYGKLGRQDGDEEFEEEEEESENKSMDTDPETIRDEEETGDHSMDDSSEDGKMETKSDHEEDNMEDGM
B8: ZBTB43 (protein, UniProt O43298 1-467, looked up)
Zinc finger and BTB …: MEPGTNSFRVEFPDFSSTILQKLNQQRQQGQLCDVSIVVQGHIFRAHKAVLAASSPYFCDQVLLKNSRRIVLPDVMNPRVFENILLSSYTGRLVMPAPEIVSYLTAASFLQMWHVVDKCTEVLEGNPTVLCQKLNHGSDHQSPSSSSYNGLVESFELGSGGHTDFPKAQELRDGENEEESTKDELSSQLTEHEYLPSNSSTEHDRLSTEMASQDGEEGASDSAEFHYTRPMYSKPSIMAHKRWIHVKPERLEQACEGMDVHATYDEHQVTESINTVQTEHTVQPSGVEEDFHIGEKKVEAEFDEQADESNYDEQVDFYGSSMEEFSGERSDGNLIGHRQEAALAAGYSENIEMVTGIKEEASHLGFSATDKLYPCQCGKSFTHKSQRDRHMSMHLGLRPYGCGVCGKKFKMKHHLVGHMKIHTGIKPYECNICAKRFMWRDSFHRHVTSCTKSYEAAKAEQNTTEAN

System: HEK293FT cells transfected with TF library
Test: Screening of TF condensates based on fluorescent puncta
Format: cell-based
Conditions: Figure 1B numerical data; TF library screen, one value per transcriptional factor
How it was run: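 Cells were seeded onto plasmid/PEI-loaded wells (plasmid 1.6 μg/ml final) and grown 60 h. Medium with or without glucose followed for 12 h. Fixed, permeabilized cells were stained against Flag or GAL4 tags, and condensate puncta were quantified from 50 random fields per well.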

Molecule | Z score of condensed fraction
B1 | 2.537
B2 | -0.7904
B3 | -0.608
B4 | -0.2463
B5 | 0.7506
B6 | -0.2886
B7 | -0.2398
B8 | 0.02104
